Molecular target: Gallus gallus laforin (Gallus gallus) (UniProt Q5ZL46)
Experiment: SEC; first pass over a HiLoad 16/60 Superdex 200 column after IMAC and tag removal; buffer C (20 mM Tris/HCl pH 7.5, 100 mM NaCl, 2 mM DTT); multimer peak, dimer and monomer species seen

stoichiometry N: 2
Substance: Gallus gallus laforin (from UniProt Q5ZL46 1-319) (enzyme)

Source: PMC4234410
